# Patent US20050221343A1
# Values joined by “and” are separate entries in the source; they are usually repeats but may differ in a detail not shown here. Equal entries are not always repeated.
# Columns and labels:
# Test in all cases: cell-based or functional assay
# [1] = molecular target: (GFP S10)-L1-sulfite reductase-L2-(GFP S11) (Pyrobaculum aerophilum)
# [2] = molecular target: (GFP S10 A10)-L1-NdeI::HPS::BamH1-L2-(GFP S11 SM5) (Pyrobaculum aerophilum)
# [3] = molecular target: (GFP S10 SM5)-L1-sulfite reductase-L2-(GFP S11 SM5) (Pyrobaculum aerophilum)
# [4] = molecular target: sulfite reductase-GFP S10-11 OPT fusion protein (Pyrobaculum aerophilum; Aequorea victoria)
# Sequence of (GFP S10 A10)-L1-NdeI::HPS::BamH1-L2-(GFP S11 SM5) (Pyrobaculum aerophilum) (main, as listed by the source): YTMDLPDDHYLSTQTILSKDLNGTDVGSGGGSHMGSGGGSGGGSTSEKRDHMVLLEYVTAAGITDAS
# Sequence of (GFP S10 SM5)-L1-sulfite reductase-L2-(GFP S11 SM5) (Pyrobaculum aerophilum) (main, as listed by the source): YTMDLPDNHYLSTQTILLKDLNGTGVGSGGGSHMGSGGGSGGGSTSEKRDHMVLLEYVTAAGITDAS
substance,measurement,setting,value
GFP 1-9 OPT (from UniProt P42212 1-197),complementation efficiency relative to the C-terminal GFP S11 M3 + GFP 1-10 OPT format,[1],0.033
same,complementation signal relative to detection with GFP 1-10 OPT,[2],0.2 and 0.25
same,complementation rate,[3],20 fold
same,"tagged fragment concentration at which complementation fluorescence plateaus, with limiting 2.5 µM GFP 1-9 OPT",[4],> 2.5 µM
